Laboratory results from the supplement of paper PMC9170038.

How the values were obtained:
MS2 coat protein [1] = experiment: apparent KD of MS2 coat protein, switch OFF state (with FMN for OFF switches, without FMN for ON switches); designed switch direction (-1 OFF switch, 1 ON switch): 1; higher = weaker reporter binding; conditions: FMN input: 0 or 200 uM; Eterna round: R93 (includes R88 designs)
In short: (§1)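 Designed RNA switches were transcribed on-chip from Illumina sequencing clusters and titrated with SNAP-549-labelled MS2 coat protein in twofold steps from 0.7 or 1.5 nM up to 3 µM. Each step lasted 0.8–1.5 h at first and 10–20 min by the end, in 100 mM Tris-HCl pH 7.5, 80 mM KCl and 4 mM MgCl2, without or with constant ligand. Apparent KD is the median, for each design, of fits to normalised cluster binding curves.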

MS2 coat protein [2] = experiment: apparent KD of MS2 coat protein, switch ON state; designed switch direction (-1 OFF switch, 1 ON switch): 1; higher = weaker reporter binding; conditions: FMN input: 0 or 200 uM; Eterna round: R93 (includes R88 designs)
In short: as §1

Sequence	apparent KD of MS2 coat protein (MS2 coat protein [1])	apparent KD of MS2 coat protein (MS2 coat protein [2])
AUAAAACAUGAGGAUCACCCAUGUAGACACAUGGGAGGAUAUACUAGAUCGAAAGAUCUAGUAGAAGGCCUUUGUA [Mat - Same State 1 - JL mod - D93]	0.749 µM	0.131 µM
AUAAAAGAAGCGAAGGAUAUCCAAAACCUAACAUGAGGAUCACCCAUGUAAAGAAAGAAAAAAUGGGAGAAGGUCGCAAAGAAUA [73%, More Fisker Same State 2, D3, 9]	0.0227 µM	0.0119 µM
AUAAAGAAAACACAGGAUAUCCAAAAGAAAACAUGAGGAUCACCCAUGUAAAGAAAAUAAAAAUGGGAGAAGGGUGAAAGAAAUA [Mat - Same State 2 - JL mod - D40]	0.109 µM	0.0348 µM
AUAAAUAAAAGCAAGGAUAUCCAAAAGAAAACAUGAGGAUCACCCAUGUAAAAGAAAAUAAAAUGGGAGAAGGUGCAAAAUAAAU [viburnum 8]	0.0275 µM	0.0148 µM
AUACUGGAGGACAAGGAUAUGUGCUCCACGACAUGAGGAUCACCCAUGUGCGACGUGGUAGUGAAACAGAAGGUGUCCUAUUGUA [Edonisve]	0.0177 µM	0.0131 µM
AUAUAUAAAAGGUAGGAUAUUCUAAAAUAAACAUGAGGAUCACCCAUGUAAAGAAAGAAACUCAUGGAGAAGGACCAUAUAUAUA [ss2 5th modifying Eli's mod of Tesla]	0.156 µM	0.0456 µM
AUAUAUAUAAGACAGGAUAUCCUAAAGUAAACAUGAGGAUCACCCAUGUAAAGAAAGAAACUCAUGGAGAAGGGUCAAUAUAUAU [Mat - Same State 2 - Tesla mod - D81]	0.0486 µM	0.0141 µM
AUAUAUAUAAGGUAGGAUAUCCAAAAAUAAACAUGAGGAUCACCCAUGUCCAUAAAGAAUAAAUGGGAGAAGGACCAUAUAUAUA [viburnum 9]	0.0486 µM	0.0285 µM
AUAUAUAUAAGGUAGGAUAUCCAAAAAUCCACAUGAGGAUCACCCAUGUAAAGAAAGAAAAAAUGGGAGAAGGACCAUAUAUAUA [77%, More Tesla, 6]	0.0319 µM	0.0169 µM
AUAUAUAUAAGGUAGGAUAUCCAAUAAUCCACAUGAGGAUCACCCAUGUAAAGAAAGAAAAAGUGGGAGAAGGGCCAUAUAUAUA [viburnum 7]	0.0484 µM	0.0174 µM
AUGAAUAGAAUCGAGGAUAUCCAGUCAUGAACAUGAGGAUCACCCAUGUAAGAGAGAGUAUAAUGGGAGAAGGCGAGUAAUAGAU [JR_SS002_Sub1702]	0.0845 µM	0.027 µM
AUUAAAUAUAGUUAGGAUAUAAUAUGUAAGACAUGAGGAUCACCCAUGUCCUAAGAAUAGUUAAAUUAGAAGGAACAGUGAAUAU [JR_SS002_Sub420]	0.0245 µM	0.0241 µM
AUUCCAAAUAGUCAGGAUAUCAGGCGUAAGACAUGAGGAUCACCCAUGUACUUAGUAAAAGUAACUGAGAAGGGACAGGGUGUAA [JR_SS002_Sub407]	0.0185 µM	0.00864 µM
CAGAGACAUGAGGAUCACCCAUGUAGGAUUAUGGGAGGAUAUACAAAGACGAGAGUCAGAGUAGAAGGCCUAGGAG [salish99-ss1-143]	0.0486 µM	0.024 µM
CAGAGGAAGAGAGAGGAUAUCCAAAGGAAAACAUGAGGAUCACCCAUGUAAAAGGUAGGAAAUUGGGAGAAGGCUCAAGAGAGAG [salish99-ss2-064]	0.0346 µM	0.0274 µM
CAGGACCUAGGAUAGGAUAUAUGAAUAAUUACAUGAGGAUCACCCAUGUCCAUUUAUAUGGGAACAUAGAAGGGUUGUGGUUAUG [Mat - Same state - Malcolm Mod - D133]	0.118 µM	0.179 µM
CAUAGACAUGAGGAUCACCCAUGUAGAAUUAUGGGAGGAUAUACAAAGACGAGAGUCAGAGUAGAAGGCCUAGGAG [salish99-ss1-163]	0.034 µM	0.0244 µM
CAUCAUGCGCCUAAGGAUAUGUCUCACAAGACAUGAGGAUCACCCAUGUAGAAUAAAUAAAUGAUGCAGAAGGUGGAGCACAUGC [Leedanla]	0.586 µM	0.372 µM
CGAAGACAUGAGGAUCACCCAUGUCGUCGUAACAGAGGAUAUGGGAGCGCCAAGGGCGCAUCAGAAGGCUGAAAAC [Beusle]	0.0251 µM	0.0178 µM
CGAAGACAUGAGGAUCACCCAUGUGGGAAUAUGGGAGGAUAUACAAAGACGAGAGUCAGAGUAGAAGGCCUAGGAC [salish99-ss1-108]	0.0755 µM	0.0265 µM
CGAAGACAUGAGGAUCACCCAUGUGGGAUUAUGGGAGGAUAUACAAAGACGAGAGUCAGAGUAGAAGGCCUAGGAA [salish99-ss1-124(!)]	0.0385 µM	0.0233 µM

Sequence	apparent KD of MS2 coat protein (MS2 coat protein [1])	apparent KD of MS2 coat protein (MS2 coat protein [2])
CUGGACGUAGGAUAGGAUAUAUGAAUAAUUACAUGAGGAUCACCCAUGUCCAUUUAUAUGGGAACAUAGAAGGGUUGUGGUUAAG [Mat - Same state - Malcolm Mod - D145]	0.241 µM	0.16 µM
GAAAAACAUGAGGAUCACCCAUGUAAGAUAAACACAGGAUAUGCGAAAAUAAACAAAUAAGCAGAAGGGUGAAAAG [Mat - Same State 1 - Tesla mod - 77]	0.0474 µM	0.0185 µM
GAAAAACAUGAGGAUCACCCAUGUAGAAAUAUGGGAGGAUAUACAAAGACGAAAGUCAAGGUAGAAGGCCUAAAAG [Mat - Same State 1 - Eli mod - 25]	0.0788 µM	0.0375 µM
GAAAAACAUGAGGAUCACCCAUGUAGAAAUAUGGGAGGAUAUACAAAGACGAAAGUCGAAGUAGAAGGCCUAAAAG [Mat - Same State 1 - Eli mod - D23]	0.0668 µM	0.0255 µM
GAAAAACAUGAGGAUCACCCAUGUAGAAAUAUGGGAGGAUAUACGAAGACGAAAGUCAAAGUAGAAGGCCUAAAAG [Mat - Same State 1 - Eli mod - D22]	0.0573 µM	0.028 µM
GAAAAACAUGAGGAUCACCCAUGUAGAAAUAUGGUAGGAUAUACAAAGACGAAAGUCAAAGUAGAAGGGCCAAAAG [Starry Same State 1.4 (mat747 round 1 mod)]	0.019 µM	0.013 µM
GAAAAACAUGAGGAUCACCCAUGUGAGAUAAACACAGGAUAUGCGAAAAUAAACAAAUAAGCAGAAGGGUGAAAAG [Mat - Same State 1 - Tesla mod - 80]	0.0924 µM	0.0271 µM
GAAAAACAUGAGGAUCACCCAUGUGGAAAUAUGGGAGGAUAUACGAAGACGAAAGUCGAAGUAGAAGGCCUAAAAG [Same State 1.4d (Mat - Mod of Eli - )]	0.0981 µM	0.0295 µM
GAAAUAAAAAGACAGGAUAUCCAAAAGAAAACAUGAGGAUCACCCAUGUAAAGAAAAUAAAAAUGGGAGAAGGGUCAAAUAAAAG [Mat - Same State 2 - JL mod - D54]	0.0328 µM	0.024 µM
GAAGACAUAGUAUAGGAUAUAUGAAUAAUUACAUGAGGAUCACCCAUGUGCAUUUAUAUGCGAACAUAGAAGGGUGGUAGUUGUC [Mat - Same state - Malcolm Mod - D129]	0.0592 µM	0.633 µM
GAGAAGAAGAGAGAGGAUAUCCAAAGGAAAACAUGAGGAUCACCCAUGUAAAAGGUAGGAAAUUGGGAGAAGGCUCAAAAGAGGG [salish99-ss2-028(!)]	0.044 µM	0.0199 µM
GAGGACAUAGUACAGGAUAUAUGAAUAGUUACAUGAGGAUCACCCAUGUGCAUUUAUAUGCGAACAUAGAAGGGUGGUAGUUAUC [SameState2 Malc#30]	0.0689 µM	0.136 µM
GAUAAACAUGAGGAUCACCCAUGUAGAUAUAUGGGAGGAUAUACAAAGACGAUAGUCAUAGUAGAAGGCCUAAUAG [77%, Mat - Mod of Eli - With 5 more U's]	0.0912 µM	0.03 µM
GAUAGACAUGAGGAUCACCCAUGUAGAAUUAUGGGAGGAUAUACAAAGACGAGAGUCAGAGUAGAAGGCCUAGGAU [salish99-ss1-157]	0.0544 µM	0.0236 µM
GCUCCAGCUAGCAAGGAUAUGUAGGAUGCUACAUGAGGAUCACCCAUGUGCUGAAAUAAGUCCCGGCAGAAGGUGUGACUGGAGA [Laedtear]	0.0269 µM	0.0168 µM
GGAAAACAUGAGGAUCACCCAUGUGAAAACGUGGGAGGAUAUCCAUGGAAACCAUACUGUGGAGAAGGCCCAUGUC [EteRNA is fun!]	0.0652 µM	0.0196 µM
GGCAGUCCGACACAGGAUAUGGGUAACGAAACAUGAGGAUCACCCAUGUGGAAACAUCGGGUUGCCUAGAAGGGUGGAAAGAUUG [Xeti]	0.259 µM	0.0264 µM
GGGAGACAUGAGGAUCACCCAUGUGAGAAGAGGCGAGGAUAUCGAAAGAAAGAAGAGAAACGAGAAGGCGCGAGCU [salish99-SS1-056]	0.062 µM	0.0281 µM
GGGAGACAUGAGGAUCACCCAUGUGAGAAGAGGCGAGGAUAUCGAAAGAAAGAAGAGAAACGAGAAGGCGCGAGGA [salish99-SS1-051]	0.0447 µM	0.0377 µM
GGGAGGAAGAGAGAGGAUAUCCAAAGGAAAACAUGAGGAUCACCCAUGUAAAAGGUAGGAAAUUGGGAGAAGGCUCAAAAGAAGG [salish99-ss2-045]	0.0365 µM	0.0276 µM
GUAGAACAUGAGGAUCACCCAUGUGAAGACGCAUGAGGAUAUAUACGUAAAUAGCAUACGAUAGAAGGCAUGAUAA [JR_SS001_Sub1703]	0.0535 µM	0.0255 µM
